# Reference: paper PMC9024677
# Experiments:
# [1] = target: bovine cardiac α-actin (bovine) (UniProt Q3ZC07); experiment: pyrene-actin polymerization assay; 5 μM actin with pyrene-labelled skeletal muscle actin (20:1) in G-buffer; polymerization started with 2 mM MgCl2 (and 0.05 M KCl); fluorescence increase followed over time
# [2] = target: bovine cardiac α-actin (bovine) (UniProt Q3ZC07); experiment: other fluorescence titration; critical concentration of polymerization (monomer to filament): 0.1 to 10 μM c-actin with 5% pyrene-actin, 2 mM MgCl2 and 0.05 M KCl overnight; steady-state fluorescence against actin concentration
# [3] = target: deoxyribonuclease I (DNase I) (bovine) (UniProt P00639)
# deoxyribonuclease I (DNase I) (bovine), sequence (P00639 23-282): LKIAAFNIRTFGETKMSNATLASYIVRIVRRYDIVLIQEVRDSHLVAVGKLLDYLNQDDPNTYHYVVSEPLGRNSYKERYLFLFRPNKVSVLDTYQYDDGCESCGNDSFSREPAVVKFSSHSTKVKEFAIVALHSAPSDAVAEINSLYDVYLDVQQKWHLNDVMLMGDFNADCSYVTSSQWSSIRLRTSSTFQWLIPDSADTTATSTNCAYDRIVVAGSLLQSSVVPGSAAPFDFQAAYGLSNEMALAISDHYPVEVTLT
# [4] = target: human cardiac α-actin mutant p.A295S (human); experiment: pyrene-actin polymerization assay; 5 μM actin with pyrene-labelled skeletal muscle actin (20:1) in G-buffer; polymerization started with 2 mM MgCl2 (and 0.05 M KCl); fluorescence increase followed over time
# [5] = target: human cardiac α-actin mutant p.A295S (human); experiment: other fluorescence titration; critical concentration of polymerization (monomer to filament): 0.1 to 10 μM c-actin with 5% pyrene-actin, 2 mM MgCl2 and 0.05 M KCl overnight; steady-state fluorescence against actin concentration
# [6] = target: human cardiac α-actin mutant p.E361G (human); experiment: pyrene-actin polymerization assay; 5 μM actin with pyrene-labelled skeletal muscle actin (20:1) in G-buffer; polymerization started with 2 mM MgCl2 (and 0.05 M KCl); fluorescence increase followed over time
# [7] = target: human cardiac α-actin mutant p.E361G (human); experiment: other fluorescence titration; critical concentration of polymerization (monomer to filament): 0.1 to 10 μM c-actin with 5% pyrene-actin, 2 mM MgCl2 and 0.05 M KCl overnight; steady-state fluorescence against actin concentration
# [8] = target: human cardiac α-actin mutant p.R312H (human); experiment: pyrene-actin polymerization assay; 5 μM actin with pyrene-labelled skeletal muscle actin (20:1) in G-buffer; polymerization started with 2 mM MgCl2 (and 0.05 M KCl); fluorescence increase followed over time
# [9] = target: human cardiac α-actin mutant p.R312H (human); experiment: other fluorescence titration; critical concentration of polymerization (monomer to filament): 0.1 to 10 μM c-actin with 5% pyrene-actin, 2 mM MgCl2 and 0.05 M KCl overnight; steady-state fluorescence against actin concentration
# [10] = target: human cardiac α-actin variant p.R312K (human); experiment: pyrene-actin polymerization assay; 5 μM actin with pyrene-labelled skeletal muscle actin (20:1) in G-buffer; polymerization started with 2 mM MgCl2 (and 0.05 M KCl); fluorescence increase followed over time
# [11] = target: human cardiac α-actin variant p.R312K (human); experiment: other fluorescence titration; critical concentration of polymerization (monomer to filament): 0.1 to 10 μM c-actin with 5% pyrene-actin, 2 mM MgCl2 and 0.05 M KCl overnight; steady-state fluorescence against actin concentration
# [12] = target: human wild type cardiac α-actin (recombinant) (human) (UniProt P68032); experiment: pyrene-actin polymerization assay; 5 μM actin with pyrene-labelled skeletal muscle actin (20:1) in G-buffer; polymerization started with 2 mM MgCl2 (and 0.05 M KCl); fluorescence increase followed over time
# [13] = target: human wild type cardiac α-actin (recombinant) (human) (UniProt P68032); experiment: other fluorescence titration; critical concentration of polymerization (monomer to filament): 0.1 to 10 μM c-actin with 5% pyrene-actin, 2 mM MgCl2 and 0.05 M KCl overnight; steady-state fluorescence against actin concentration
# [14] = target: bovine cardiac α-actin (bovine) (UniProt Q3ZC07)
# [15] = target: human cardiac α-actin mutant p.A295S (human)
# [16] = target: human cardiac α-actin mutant p.E361G (human)
# [17] = target: human cardiac α-actin mutant p.R312H (human)
# [18] = target: human wild type cardiac α-actin (recombinant) (human) (UniProt P68032)
substance,measurement,setting,value
bovine cardiac α-actin (from UniProt Q3ZC07 1-377) (natural protein),half time of polymerization (t 1/2),[1],2.7 min
same,critical concentration of polymerization (Cc),[2],0.21 µM
human cardiac α-actin mutant p.A295S (natural protein),"inhibition of DNase I activity (hyperchromicity assay), 3.2 μM DNase I pre-incubated with zero to 6.4 μM G-actin; inhibitory capacity against wt c-α-actin",[3],33%
same,half time of polymerization (t 1/2),[4],8.5 min
same,critical concentration of polymerization (Cc),[5],0.4 µM
human cardiac α-actin mutant p.E361G (natural protein),half time of polymerization (t 1/2),[6],1.6 min
same,critical concentration of polymerization (Cc),[7],0.2 µM
human cardiac α-actin mutant p.R312H (natural protein),half time of polymerization (t 1/2),[8],10.8 min
same,critical concentration of polymerization (Cc),[9],0.7 µM
human cardiac α-actin variant p.R312K (natural protein),half time of polymerization (t 1/2),[10],3.08 min
same,critical concentration of polymerization (Cc),[11],0.21 µM
human wild type cardiac α-actin (recombinant) (from UniProt P68032 1-377) (natural protein),"inhibition of DNase I activity (hyperchromicity assay), 3.2 μM DNase I pre-incubated with zero to 6.4 μM G-actin; concentration for complete inhibition against skeletal muscle actin",[3]; scale: fold higher concentration than skeletal muscle actin,3
same,half time of polymerization (t 1/2),[12],2.5 min
same,critical concentration of polymerization (Cc),[13],0.2 µM
rabbit skeletal muscle myosin subfragment-1 (domain or fragment),"apparent KM of the myosin-S1 ATPase stimulation by F-c-actin (double reciprocal plot), pCa 4.3, without cTm/cTn",[14],0.081 µM
same,"apparent KM of the myosin-S1 ATPase stimulation by F-c-actin (double reciprocal plot), pCa 4.3, without cTm/cTn",[15],0.966 µM
same,"apparent KM of the myosin-S1 ATPase stimulation by F-c-actin decorated with cTm/cTn (6:1:1), pCa 4.3",[15],3.31 µM
same,"apparent KM of the myosin-S1 ATPase stimulation by F-c-actin (double reciprocal plot), pCa 4.3, without cTm/cTn",[16],0.075 µM
same,"apparent KM of the myosin-S1 ATPase stimulation by F-c-actin decorated with cTm/cTn (6:1:1), pCa 4.3",[16],0.173 µM
same,"apparent KM of the myosin-S1 ATPase stimulation by F-c-actin (double reciprocal plot), pCa 4.3, without cTm/cTn",[17],0.096 µM
same,"apparent KM of the myosin-S1 ATPase stimulation by F-c-actin decorated with cTm/cTn (6:1:1), pCa 4.3",[17],0.0243 µM
same,"apparent KM of the myosin-S1 ATPase stimulation by F-c-actin (double reciprocal plot), pCa 4.3, without cTm/cTn",[18],0.165 µM
same,"apparent KM of the myosin-S1 ATPase stimulation by F-c-actin decorated with cTm/cTn (6:1:1), pCa 4.3",[18],0.217 µM
